Results on one molecule are retold here after patent publication US20230357405A1.

This test concerns the target human PD-1 expressed on cells (CHO human PD-1 cells) (human) (UniProt Q15116). The test can be described thus: cell-based or functional assay.

Sequence of human PD-1 expressed on cells (CHO human PD-1 cells) (human) (Q15116 21-288): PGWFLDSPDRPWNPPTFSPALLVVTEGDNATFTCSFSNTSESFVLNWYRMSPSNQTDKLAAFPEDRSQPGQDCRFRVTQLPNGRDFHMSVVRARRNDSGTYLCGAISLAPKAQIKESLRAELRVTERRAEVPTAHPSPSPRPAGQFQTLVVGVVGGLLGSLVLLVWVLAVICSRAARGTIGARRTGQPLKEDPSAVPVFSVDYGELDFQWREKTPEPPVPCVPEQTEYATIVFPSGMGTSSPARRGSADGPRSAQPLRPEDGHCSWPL

B1: 1.57-4GS-MSA binder (bispecific antibody, part only; not given: mouse serum albumin binding VH, part only)
chain, part: QVQLVESGGGLVKPGGSLRLSCAASGFTFSDNSMTWMRQAPGKGLEWVSYISSGGGVIFYADSVKGRFTISRDNAKNSLYLQMNSLRADDTAVYYCAREAPLRLGESPHDAFDISGQGTMVTVSSGGGGSGGGGSGGGGSGGGGS
B1 displayed an EC50 (M); human PD-1 reporter gene assay of 1e-08 M and an EC50 (M); reporter assay of 1e-08 M.
